Data as given in article PMC6990647.

B1: NS19FAM duplex (dsDNA)
DNA 1: GCTCTGTACATGAGCAGTG
DNA 2: CACTGCTCATGTACAGAGC

Target: hUNG2 N-terminal domain (NTD) (Homo sapiens, UniProt P13051 1-92)
Experiment: fluorescence anisotropy

Chain of hUNG2 N-terminal domain (NTD) (P13051 1-92): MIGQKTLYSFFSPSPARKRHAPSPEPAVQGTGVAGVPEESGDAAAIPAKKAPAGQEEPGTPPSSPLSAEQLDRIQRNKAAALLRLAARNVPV

Binder	Kd
B1	10 µM
GCTCTGTACATGAGCAGTG (ssDNA) [NS19FAM ssDNA]	23 µM
